These results are taken from publication doi:10.1101/390104 (bioRxiv, 2018).

To fix the notation:
B1: wild type HdeA (natural protein, E. coli, UniProt P0AES9 22-110, looked up)
chain: ADAQKAADNKKPVNSWTCEDFLAVDESFQPTAVGFAEALNNKDKPEDAVLDVQGIATVTPAIVQACTQDKQANFKDKVKGEWDKIKKDM
B2: HdeA mutant with 19F probe incorporated at site 7 (natural protein)
chain: ADAQKAWDNKKPVNSFTCEDFLAVDESFQPTAVGFAEALNNKDKPEDAVLDVQGIATVTPAIVQACTQDKQANFKDKVKGEFDKIKKDM
modifications: 5-fluorotryptophan at 7
B3: HdeA mutant with 19F probe incorporated at site 24 (natural protein)
chain: ADAQKAADNKKPVNSFTCEDFLAWDESFQPTAVGFAEALNNKDKPEDAVLDVQGIATVTPAIVQACTQDKQANFKDKVKGEFDKIKKDM
modifications: 5-fluorotryptophan at 24
B4: HdeA mutant with 19F probe incorporated at site 49 (natural protein)
chain: ADAQKAADNKKPVNSFTCEDFLAVDESFQPTAVGFAEALNNKDKPEDAWLDVQGIATVTPAIVQACTQDKQANFKDKVKGEFDKIKKDM
modifications: 5-fluorotryptophan at 49
B5: HdeA mutant with 19F probe incorporated at site 35 (natural protein)
chain: ADAQKAADNKKPVNSFTCEDFLAVDESFQPTAVGWAEALNNKDKPEDAVLDVQGIATVTPAIVQACTQDKQANFKDKVKGEFDKIKKDM
modifications: 5-fluorotryptophan at 35
B6: HdeA mutant with 19F probe incorporated at site 28 (natural protein)
chain: ADAQKAADNKKPVNSFTCEDFLAVDESWQPTAVGFAEALNNKDKPEDAVLDVQGIATVTPAIVQACTQDKQANFKDKVKGEFDKIKKDM
modifications: 5-fluorotryptophan at 28
B7: HdeA mutant with 19F probe incorporated at site 55 (natural protein)
chain: ADAQKAADNKKPVNSFTCEDFLAVDESFQPTAVGFAEALNNKDKPEDAVLDVQGWATVTPAIVQACTQDKQANFKDKVKGEFDKIKKDM
modifications: 5-fluorotryptophan at 55
B8: HdeA mutant with 19F probe incorporated at site 63 (natural protein)
chain: ADAQKAADNKKPVNSFTCEDFLAVDESFQPTAVGFAEALNNKDKPEDAVLDVQGIATVTPAIWQACTQDKQANFKDKVKGEFDKIKKDM
modifications: 5-fluorotryptophan at 63
B9: HdeA mutant with 19F probe incorporated at site 78 (natural protein)
chain: ADAQKAADNKKPVNSFTCEDFLAVDESFQPTAVGFAEALNNKDKPEDAVLDVQGIATVTPAIVQACTQDKQANFKDKWKGEFDKIKKDM
modifications: 5-fluorotryptophan at 78
B10: HdeA-F28W mutant (natural protein)
chain: ADAQKAADNKKPVNSWTCEDFLAVDESWQPTAVGFAEALNNKDKPEDAVLDVQGIATVTPAIVQACTQDKQANFKDKVKGEWDKIKKDM
B11: HdeA-16-fluoro (natural protein)
chain: ADAQKAADNKKPVNSWTCEDFLAVDESFQPTAVGFAEALNNKDKPEDAVLDVQGIATVTPAIVQACTQDKQANFKDKVKGEFDKIKKDM
modifications: 5-fluorotryptophan at 16
B12: HdeA-82-fluoro (natural protein)
chain: ADAQKAADNKKPVNSFTCEDFLAVDESFQPTAVGFAEALNNKDKPEDAVLDVQGIATVTPAIVQACTQDKQANFKDKVKGEWDKIKKDM
modifications: 5-fluorotryptophan at 82

One data set deals with T1, MalE (E. coli, UniProt P0AEX9 27-396 = MBP). Kind of data set: ITC. (In general: ITC needs no label: the signal is the heat of the interaction.)
In the case of B1, the stoichiometry N (in general, a count of units in the complex or per binding partner) was around 0.5.

In the next data set the target is T1, MalE. The experiment in a line: 19F NMR.
On to B2, for which the binding result is on record as “binds”.
Still for that read-out and setting: the value for B3 was “binds”; that for B4 was “binds”.
On the same count and under the same terms, the value for B5 was “binds”; that for B6 was “binds”; that for B7 was “binds”.
On the same count and under the same terms, the result for B8 reads “binds”; that for B9, “binds”.

In a further data set the target is T1, MalE. Kind of data set: NMR.
On to B10, for which the binding result is recorded as “binds”.
Consider B11, for which the binding result was “binds”.
Same read-out and setting: the value for B12 was “binds”.

A further data set deals with the molecule itself. The experiment in a line: NMR.
Regarding B1, the binding result is on record as “binds”.
